The values that follow come from the supplement of paper PMC7877785.

± gives the uncertainty stated by the source.

The nature of this data set: self-splicing fitness, log relative to wild type (ln ratio); higher = more splicing; Tetrahymena group I intron in knt gene, E. coli kanamycin selection, DiMSum; sequences stand for … in CUCUCU…GGAGGGAAAAGUUAUCAGGCAUGCACCUGGUAGCUAGUCUUUAAACCAAUAGAUUGCAUCGGUUUAAAAGGCAAGACCGUCAAAUUGCGGGAAAGGGGUCAACAGCCGUUCAGUACCAAGUCUCAGGGGAAACUUUGAGAUGGCCUUGCAAAGGGUAUGGUAAUAAGCUGACGGACAUGGUCCUAACCACGCAGCCAAGUCCUAAGUCAACAGAUCUUCUGUUGAUAUGGAUGCAGUUCACAGACUAAAUGUCGGUCGGGGAAGAUGUAUUCUUCUCAUAAGAUAUAGUCGGACCUCUCCUUAAUGGGAGCUAGCGGAUGAAGUGAUGCAACACUGGAGCCGCUGGGAACUAAUUUGUAUGCGAAAGUAUAUUGAUUAGUUUUGGAGUACUCGUGGUCG
In short, it runs like this: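 Pooled colonies went to amplicon sequencing on an Illumina HiSeq 2500 after six replicate transformations. The plates were LB agar with 100 μg/mL carbenicillin, 50 μM IPTG and 0.2% rhamnose, with or without 25 μg/mL kanamycin, incubated overnight at 37°C or 30°C. The E. coli BL21(DE3) library had all eight P1ex-region intron nucleotides randomised, the intron placed in the knt kanamycin-resistance gene on pET-22b(+). DiMSum fitness is the error-weighted combination of replicate fold changes, kanamycin against none, normalised to wild type.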

On to CGCGAGCAAUAUUACGCGCG, for which the “self-splicing fitness (ln)” value (37 °C) is -2.07 ± 0.29.
UUAUAGCAAUAUUACGGGAA: the “self-splicing fitness (ln)” value (30 °C) is -1.59 ± 0.29 and the “self-splicing fitness (ln)” value (37 °C) is -1.26 ± 0.28.
On the same counts, the results for AUACAGCAAUAUUACGUUUA are -1.73 ± 0.078 and -1.07 ± 0.084.
On the same counts, the results for UAGUAGCAAUAUUACGGCAA are -0.858 ± 0.15 and -1.04 ± 0.16.
On the same counts, the results for UGAUAGCAAUAUUACGCACU are -0.651 ± 0.14 and -0.218 ± 0.14.
For AAUAAGCAAUAUUACGCCGG, the “self-splicing fitness (ln)” value (30 °C) was -1.87 ± 0.13 and the “self-splicing fitness (ln)” value (37 °C) is -1.07 ± 0.18.
With AAGCAGCAAUAUUACGGUCC, the “self-splicing fitness (ln)” value (30 °C) was -1.17 ± 0.1 and the “self-splicing fitness (ln)” value (37 °C) was -0.771 ± 0.17.
For the sequence GCACAGCAAUAUUACGAAAU, the “self-splicing fitness (ln)” value runs as follows: (30 °C) -1.63 ± 0.099; (37 °C) -0.818 ± 0.11.
For UAGAAGCAAUAUUACGCUAA, the “self-splicing fitness (ln)” value reads like this: (30 °C) -1.42 ± 0.12; (37 °C) -0.983 ± 0.1.
Consider GCAGAGCAAUAUUACGCGCG, for which the “self-splicing fitness (ln)” value reads like this: (30 °C) -2.8 ± 0.17; (37 °C) -1.49 ± 0.14.
For UAGGAGCAAUAUUACGAGAG, the “self-splicing fitness (ln)” value (30 °C) is -3.02 ± 0.21.
With AUAGAGCAAUAUUACGUAAU, the “self-splicing fitness (ln)” value is -0.582 ± 0.1 (30 °C) and 0.244 ± 0.12 (37 °C).
As for AAAGAGCAAUAUUACGACAA, the “self-splicing fitness (ln)” value runs as follows: (30 °C) -2.27 ± 0.23; (37 °C) -2.95 ± 0.38.
Take UGCUAGCAAUAUUACGUAGG: the “self-splicing fitness (ln)” value reads like this: (30 °C) -2.18 ± 0.14; (37 °C) -0.778 ± 0.2.
As for UGAAAGCAAUAUUACGACAA, the “self-splicing fitness (ln)” value is 0.219 ± 0.1 (30 °C) and -0.111 ± 0.13 (37 °C).
For the sequence ACAUAGCAAUAUUACGGCCU, the “self-splicing fitness (ln)” value runs as follows: (30 °C) -0.828 ± 0.074; (37 °C) 0.129 ± 0.1.
On the same counts, the results for ACCUAGCAAUAUUACGUGCG are -1.5 ± 0.069 and -0.773 ± 0.077.
For UUUCAGCAAUAUUACGGACU, the “self-splicing fitness (ln)” value by setting is: (30 °C) -0.982 ± 0.13; (37 °C) -0.184 ± 0.11.
On the same counts, the results for UGAAAGCAAUAUUACGGAAU are -3.12 ± 0.18 and -0.0346 ± 0.15.
On the same counts, the results for AGAUAGCAAUAUUACGGUUA are -0.766 ± 0.11 and -0.936 ± 0.1.
Take GGGGAGCAAUAUUACGCCUU: the “self-splicing fitness (ln)” value (37 °C) is -0.939 ± 0.35.
As to CAAAAGCAAUAUUACGUCCG, the “self-splicing fitness (ln)” value is -0.119 ± 0.082 (30 °C) and 0.175 ± 0.1 (37 °C).
Take GUAUAGCAAUAUUACGGGUU: the “self-splicing fitness (ln)” value (30 °C) was -3.05 ± 0.29 and the “self-splicing fitness (ln)” value (37 °C) is -2.07 ± 0.27.
On the same counts, the results for GCUCAGCAAUAUUACGCAGU are -2.41 ± 0.15 and -1.13 ± 0.14.
UGGUAGCAAUAUUACGGCCU: the “self-splicing fitness (ln)” value is -0.807 ± 0.18 (30 °C) and -0.532 ± 0.39 (37 °C).
On the same counts, the results for UUCGAGCAAUAUUACGCUGG are -0.924 ± 0.28 and -1.02 ± 0.42.
Consider CCAUAGCAAUAUUACGCAGU, for which the “self-splicing fitness (ln)” value (30 °C) was -2.94 ± 0.14 and the “self-splicing fitness (ln)” value (37 °C) is -3.37 ± 0.42.
On the same counts, the results for UGAGAGCAAUAUUACGGGCG are -2.04 ± 0.21 and -0.434 ± 0.19.
On the same counts, the results for AUUAAGCAAUAUUACGGGGG are -2.97 ± 0.27 and -2.33 ± 0.33.
On the same counts, the results for AAAUAGCAAUAUUACGAAAA are -2.66 ± 0.35 and -1.47 ± 0.22.
In the case of AGGUAGCAAUAUUACGCUUC, the “self-splicing fitness (ln)” value by setting is: (30 °C) -3.52 ± 0.036; (37 °C) -2.83 ± 0.054.
Regarding GGCAAGCAAUAUUACGACGC, the “self-splicing fitness (ln)” value runs as follows: (30 °C) -0.177 ± 0.14; (37 °C) -0.105 ± 0.17.
On the same counts, the results for AUGCAGCAAUAUUACGCUAA are -0.813 ± 0.13 and -0.31 ± 0.12.
Consider GCUAAGCAAUAUUACGUCGU, for which the “self-splicing fitness (ln)” value by setting is: (30 °C) -1.39 ± 0.072; (37 °C) -1.3 ± 0.095.
For UCACAGCAAUAUUACGCUUU, the “self-splicing fitness (ln)” value is, setting by setting: (30 °C) -3.36 ± 0.15; (37 °C) -3.6 ± 0.27.
On the same counts, the results for AAUCAGCAAUAUUACGAUAA are -0.0103 ± 0.084 and -0.0641 ± 0.1.
On the same counts, the results for UAGCAGCAAUAUUACGAAGA are -1.64 ± 0.14 and -1.29 ± 0.13.
On the same counts, the results for GUCUAGCAAUAUUACGAAGU are -1.23 ± 0.19 and -0.107 ± 0.14.
